Assay: soluble fraction after stress (log2 fold change); higher = more stays soluble; pooled small domains, quantitative proteomics
Conditions: stress: pH 4
Method in brief: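 How much of each domain stays soluble after acid stress, expressed as a fold change, is used to gauge aggregation propensity. Pooled custom libraries of small domains underwent pH 4 stress before high-throughput quantitative proteomics. A higher log2 value means more of the domain stayed soluble.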

HMNFSRQREIIYEQVRNFPVHPTAEEVYRALKNDNPNLSLGTVYRNLNQLSEAGMLLKIPIADGSDRFDGR
soluble fraction (log2): -0.56

HMNFTETENRIYEEILKNVKQHKKKTVVQIAEKVDVAPSYVIKVAKKLGYSGLNEMWYSLSGIY
soluble fraction (log2): -0.0318

HMNFTMERLYTKELTSEDIDEIKKELNSMGYTEGVEFNIIKGDKTSFIMAERQLKAKMLSHLSDLGLPRGA
soluble fraction (log2): 0.0335

HMNGAAAEQARKQLMTALKASEFIAQDKLDEWLDALALPQEKRSAIIDAVDELDYEEAISELEN
soluble fraction (log2): -0.2

HMNGDWISARQEYYIRGLWDLASRAKDEASLQAMLQRIAGVTQIEWISKEKATKVILALRDIAKK
soluble fraction (log2): -0.154

HMNGELSQRQWQILRLIAQGLSNEQMARQLFVAPSTIKTHINHLYAKLGVRTRAEAQAIARQKLMA
soluble fraction (log2): -0.0448

HMNGIFEYSDAKKVPSLVEIENAYRRARVNGAEKFAVIINGEYFGYNPQKRGIYKLNDGEYQIL
soluble fraction (log2): 0.115

HMNGKPDMTPIPAGSRNNDLHAWAYGRLLNHPDNAEAIRRDLFERGQTSGLKESELETIWQSIRRQLGGD
soluble fraction (log2): 0.126

HMNGKTIEVPDITEKSIAEAQLILNQKKLRYNVVDSTRFDPAYLPFSVLTQEPEAGDEVKKNRTIYITLNP
soluble fraction (log2): -0.0716

HMNGLDSVLRNWARQTLASGGENLLGDLTDHVTRLIISEALIMTGGNRTRAAELLGLSRPTLLAKMDKLNL
soluble fraction (log2): -0.789

HMNGPTPEEKLAVVNAEFVRQYGDEYEELELEGEELEEYYQKALNKEDFEYDIPHLPGWDEP
soluble fraction (log2): -0.905

HMNHHEIIMKNIDTLLKEKNISISKLEKSLGISNGYISRLRNGKYNFSLDLLLKLAKKFKISIDYLLTDFD
soluble fraction (log2): -0.119

HMNHNPSIARKISREIKRGAPPESLLNLARTVNDSYYRSLSFVSIAYSIKGKKSKELFEEAISNLT
soluble fraction (log2): -0.0826

HMNHTIEENDRVLILDPRGKKYLITVTNRVFHTNLGKLDISELIGKNYGDKIKSHMGKNFSILKPNLIDYI
soluble fraction (log2): 0.053

HMNIAEIGQKVAQQRVALGISQERLAKLSDLSRSTIHHLEHGTLHEIGAAKLFKLLSLLDIQLK
soluble fraction (log2): 0.159

HMNIDQAFISDLERMIMPDISKYELMDIISIMENSGFTIKVEGTGNEVRQVIKPGSKLKKGQKIKIKL
soluble fraction (log2): -1.79

HMNIEIIEVQEESTPSEISKIISTESTKIIEDLLNLGVMASLETPLKNQDIEKLLEGYGYIVDIKP
soluble fraction (log2): -1.84

HMNIGEKIKKIRTQQNKSTYELADIINKNGFKISQSAISKIENGRKKIDIETLEEIAKALDIEVDLLIT
soluble fraction (log2): -0.282

HMNIGIVSLAAVPMRKEPSDRAEMVNQILFGETFDVLEEQEKWTLVQLHHDAYQGWIDRKQWDYASGIAD
soluble fraction (log2): -1.3

HMNIIHNPSKNFIESDLNDLKEGMEIEHKKFGYGLIKSIDKTQNHQKAVVNFKLVGEKTLLLSFARLRIV
soluble fraction (log2): -0.519

HMNIILFLDELHRLLSDLPPEERNQAIKYYEDYFEDAGPENEQAILKELGSPQELANQIKATT
soluble fraction (log2): -1.36

HMNIIMLGEFIKEQRIKRKMTQEYLASELGISRPTYSQIELGTRELTIPEARKMAAIFNISLEDFLAEKE
soluble fraction (log2): 0.149

HMNIMNINQALNVLNLKGTVSKEELAKAYKKMAIKYHPDRNPTGVEMMKVINSAYEFLKGLNLEEIKH
soluble fraction (log2): 0.252

HMNINLNVGKRLKSIRQNKELSLDEVSNLTNVSKPALAQIERGASSPTINTLWKISKGLKVPLSYFLQE
soluble fraction (log2): ≥ 0.43

HMNINVRNTGIKAVENNIINLSSDQRTFTWASNDRKLITVPFDENPYSALAAWFKTDEGIEVYQTIEKKL
soluble fraction (log2): -0.294

HMNIWNEWAFKKWIESDEYTGPDMTDFGHRTLVDEEFSKQYKEQMSLFKERVLTDDEFSAKYGDL
soluble fraction (log2): -2.07

HMNKEDIASNEKLLGLLNHMSKVLKDIDFIKDDRPMIVRKINHIFKKATLSEEEINILRGVLSAIENHS
soluble fraction (log2): -0.104

HMNKEKLLEMFESMSIIIVQSLEEKEQTEDRIETELFNEAKTPRYSTLTKQDIQSVIRNILITVGV
soluble fraction (log2): -0.959

HMNKELVVPDLTDMRVKDAEFEAHQVGMRTEIVDSVYVRRLKRGYVYKQNPVPGSKVKKGRRIALTINAV
soluble fraction (log2): 0.1

HMNKETYIDALERKLWDRLDPDQLRDIISYYKDYFAMEAAKGISEEETIRKLGDPALLAKSILAAE
soluble fraction (log2): -0.145

HMNKEVDLPNFVGMTKENAQAQADKIKIKLEFEEEYSSDVEEGKIISQNPEYKENYKIKEKSTVSLKI
soluble fraction (log2): 0.0516

HMNKFKVNERVRVIATGEIGIVKGREILPVEGSKRVNIEYLVKVGNGFSNWKAFSKKELEPVR
soluble fraction (log2): ≥ 0.43

HMNKFRVGDEVEIVKLDKTIQHFGGEEVLSPVGTKTYITYVDVTGKEIEIDKDIYSYHADDLTLV
soluble fraction (log2): -1.76

HMNKKLEMKIEQLDLSVRLFNSLKRSGIYTVAQIIKLTEEDVMRFRSLGRKSFKELKEKLSEHGLEFE
soluble fraction (log2): -1.02

HMNKLKALREEQGLSMMEIAKQLNMPYTTYVNYEKGTREPNSEMLIKFSKFFNVTIDYLIGNSEQKN
soluble fraction (log2): -0.129

HMNKNLQLMINEIKKGLASEDIETRKKSVLMLSRIDAPEIIQVLEPLKDDSSEEIRKISSKIISVLSKKYT
soluble fraction (log2): 0.332

HMNKNQGVTTTNLNFRKSASTSSLVLYTIPKNTTLDILDKLPSGWYKVKYKGLTGYVSGSYV
soluble fraction (log2): 0.22

HMNKPTFNIFNNRLTFPFKGDITIYSLDGKRVFSAYNESSVNLSFLNRGSYISEFNNSRSVLIL
soluble fraction (log2): -0.948

HMNKRKQRINDLMDLIREQPALSIKNLAEMLNVSEMTIRRDMAYLKSNNLLNRAHGMNFLNS
soluble fraction (log2): 0.132

HMNKSEFLNELEKRIRVLEKNEIKDILAEYSQHIDMRMGSGLSEAEAIKDFGDMDDLAAEILEAY
soluble fraction (log2): -0.436

HMNKVDEEKNAELVSTIQNKFSDVSAATKKKVKAFMAEHDIPNFKNADEIPTANLEAIVAMLNED
soluble fraction (log2): 0.22

HMNKYNNIEDLKEEDFENISEKYQVPVSFVKSKLDDLINWHEKNPQKNHYKNYLSALRDWVKRDSLKIKL
soluble fraction (log2): 0.0178

HMNLDELGNRIREQRIKQRLKQQDIANALMLSAQAVSKWERGENAPDISVLPDLVKILGVSVDWLLTGP
soluble fraction (log2): -1.15

HMNLDPHVVGHRLRDLRTRRDLTLADVAAETDISVSTLSRLESGSRRATLELLVPLARTYRVTLDELVDA
soluble fraction (log2): -0.353

HMNLDPIKRKSEILSLFESHKNVKFNEIFFEKVNKEFTVLTFLIILELVKDNIIDFSQTQEGLIEFFTR
soluble fraction (log2): 0.204

HMNLDVPGIIKRAKQALNLKRDSELAEFLGVSRATVTNWAARNSIDFRLLLDKLGNTVDYNWLLLGKGNPK
soluble fraction (log2): -0.188

HMNLDYKQFQVFNNIETLNTFTNLLSDNKIDFEVENNSKIFDPSFANNDFEKEYIVKIHPNDFEKVY
soluble fraction (log2): -1.32

HMNLEIGAIIKSLRAKHKYTQEQLSAFLGVTPQAVSRWEAGNGYPDIELLPAIARFFEVSTDELLGL
soluble fraction (log2): -1.32

HMNLGDLYVIMEIAGQRDDVSARLMNREGQTFLVKTGTKLKSGDVVKEITPTYIKTDHDGEEAFLYF
soluble fraction (log2): -1.17

HMNLGETIYNLRKEKKLSQGDLAEQLSVSRQSVSKWENNSAVPDLDKLVKLSTIFGVSLDELVKG
soluble fraction (log2): 0.409

HMNLGLTGDPSVLYSILLQRGDSSRADLQRQTGWSLSKTTLVLNQLLAQKLIVQVGAGRSTQYRVIN
soluble fraction (log2): -0.196

HMNLGNLAYESKVTKQVLNMIRPLHPEYSSDDITRAVKEILSEEGSRQRRVDEIARGALDVLMGNPR
soluble fraction (log2): ≥ 0.43

HMNLLQAHLLRLESAALLAEVREVDRQLSRWLHPLTPQSDVAIIDERNWEAAVARLTELGVHIEEGRW
soluble fraction (log2): -1.67

HMNLNIGNNIKNIRKSKNMTQTDFAELMGLSRSYIGDLENNRSNPSIKTLEAIARALDVPIVALIN
soluble fraction (log2): -0.726

HMNLSSETLSEMEARIGQMGVVELQDRRAYLLQEQEGTQNPSRLKEIADELSAIQKALVALV
soluble fraction (log2): -0.401

HMNLTEIGQRIRDRREELGLSQDRLAKLGGLPRVTINQLETGSIGDLGVSKLLNLLDLLGLTLDA
soluble fraction (log2): -0.614

HMNLTLMDALKAAGLPVDGINLSMVNKMMEEQMPIDKTSLNQMYQLVQDNKDINVTTLVELKRLG
soluble fraction (log2): -0.393

HMNLTSNDAYSRILNAIITSELRPGDTVTEIQLAQKFGFGRTPVREAIMRLENEGFIVSAERKKRVYIL
soluble fraction (log2): -0.815

HMNLTSSDIQKILSYALLADNSITLNSIEESMASLKLKKMSAEQLIELLEVSSMVLRNTNNSWSIL
soluble fraction (log2): -1.32

HMNMENIADKIGKIYESLPEDLKLMIKYRDIDDLTYDEIAVKADLPVGTVRSRLHRAREQLLKELEKN
soluble fraction (log2): -0.0554

HMNMEPNWLKWAKQLAALAQNGLTYSDNPYEIERYEHIRRIAAEMMAEGFELDTKTILELFPREKG
soluble fraction (log2): -1.41

HMNMFDMRKTGARISQLRRAAGLTQAELAEKLGISYQAVSSWERGSNMPDIGKLLDLARILNTTVDALLSA
soluble fraction (log2): 0.309

HMNMGKRFKELRKERKFTQQQLADRIGLAPSAISSYESGARYPSYDVLIKYSKIFHVTTDYLLG
soluble fraction (log2): 0.148

HMNMKVGPVPANVVPANIKAHVSNNYSKYQIVQMMQNDKGYQVKLSNGTDLYYDKDGNILKTS
soluble fraction (log2): 0.0948

HMNMSVGAALRRRRNELGMTLRELADEAELTSGFLSQVENDRVSPSLKSLGRIAEVLRIPLFQLLS
soluble fraction (log2): -0.659

HMNMSVVEKVIQQISNPGRDSLIPILQAVQEEEGFISRESVIEIGKALDLPASKIYGVATFYNQFR
soluble fraction (log2): -0.543

HMNMTDVLVVNQTVRGGTQITESMLSVKKVDKSSLPDNYLKASLKDEVVGKYFDLGLTSGGVLTKDNISVS
soluble fraction (log2): 0.104

HMNMVSGHLQIKKGYYYVVLSYYDNRNKRHVKYVSTGLPEKGNKRKAEAALARVRSEFEPPQE
soluble fraction (log2): 0.353

HMNNDFIVKSTDSHKVNLRSQPDTHADIIKRLDDHTIVEKLKTVRKNWYLVQLKDTTTQGYVHKSQLERV
soluble fraction (log2): 0.21

HMNNDFVERLRKLFGHASMAEIARRIDVPHATIRNYFQGRLPAPEVLIKLARETGVSLNWLLTGEGKMFA
soluble fraction (log2): -0.113

HMNNENELSSIISKVLEENPAEKERFLNGEKKLAGFFMGKIMKATKGTADPKKAAQLLNEIL
soluble fraction (log2): 0.271

HMNNFNVVVGKAIKNSFNTRENYITINAGKVLGIKTDMGVINDKGIVGIVEKTSKDFATIQSVLNIKS
soluble fraction (log2): 0.22

HMNNGTDGLTTRLRRAILAGQYTFKERLPSERQLAEHFNTSRGTVRKVLQRLTTMNLVEQRAGSGTYVRYG
soluble fraction (log2): 0.22

HMNNIGSKIKSAKILNNLDDNQLSEITGIDKLQLRSIQDGQVNPTKMELEIISKALKLPTNYFTK
soluble fraction (log2): 0.154

HMNNIIYLIANKLDVGKRLDQFITIRTEFSRQRVINLIEDGYVKLNNKIINLKKYKIKGDEKIEITIPEIR
soluble fraction (log2): -1.49

HMNNKVAVKSGYYFEIFNKEEIPTTLAKTKQKVKINNIQYDLYQGMSLDDERKIDDMFGDRMGYSIDDY
soluble fraction (log2): -1.9
